Laboratory results from patent publication US20110171242A1.

Biological target: LTβR (whole, in cells) (human) (UniProt P36941)
Experiment: cell-based or functional assay

recombinant soluble LTα1β2 (from UniProt P01374 35-205; Q06643 49-244) (ligand)
IC50 for inhibition of HCMV pp28 expression (western blot): 1 nM
inhibition of the cytopathic effect of HCMV, against LTα and LIGHT: 10 fold
